Laboratory results taken from the DeepSol protein solubility set.

experiment: soluble on expression in E. coli; label from the status in PepcDB or PDB records

Sequence | soluble on expression in E. coli
MGSDKIHHHHHHMNAPRFAAPARRTKKLPPLRVGIGGPVGSGKTTLLEMLCKGMRERYDLVAITNDIYTKEDQRLLTIAGALPEARIMGVETGGCPHTAIREDASINLEAVERMLARFPDADIVFIESGGDNLAATFSPELSDLTIYVIDVAGGEKIPRKGGPGITKSDLLVINKTDLAPLVGANLEVMASDTRKMRGERPYVMCNLKALDGVADVIAFIENKGLLTV | not soluble
MDKKILVVDDEKPIADILEFNLRKEGYEVHCAHDGNEAVEMVEELQPDLILLDIMLPNKDGVEVCREVRKKYDMPIIMLTAKDSEIDKVIGLEIGADDYVTKPFSTRELLARVKANLRRQ | soluble
MKLVILLSFVATVAVFAAPSAPAGLEEKLRALQEQLYSLEKENGVDVKQKEQPAAADTFLGFVPQKRMVAWQPMKRSMINEDSRAPLLHAIEARLAEVLRAGERLGVNPEEVLADLRARNQFQ | not soluble
MAIQGSRTEGLGGYTFDDLAVVMGTYNEEEAIGTVLDDIATVTDGRAEVICVDGSSDRTPEIARDHGATVIEQEPQGYGVAVREAVLTPDRPVVVTTDCDDTYPMERLPDFLAEINDGADVVSGDRLYYGAEQMPAMNKLGNELFALLASVLMGKRVHDTTTGMRAYRREVLQKIVWTENTGLSAELLMRPLMRGYDVRERPIEYDERKGETKLDPFSGGAAIAKSIVRVALEERFRLEHHHHHH | soluble
MGSDKIHHHHHHMVNIEIDEGSGFCFGVTTAIRKAEEELAKGNTLYCLGDIVHNGQECERLKKMGLITINHEEFAQLHDAKVLLRAHGEPPETYAIARTNNIEIIDATCPVVLRLQKRIKQEYDNVPASQDTQIVIYGKNGHAEVLGLVGQTHGKAIVIETPAEAAHLDFTKDIRLYSQTTKSLEEFWQIIEYIKEHISPDATFEYYDTICRQVANRMPNIRKFAAAHDLIFFVCGRKSSNGKILYQECKKINPNSYLIDQPEEIDRNLLEDVRSIGICGATSTPKWLMEECKKAILNEK | not soluble
MSTSRDRVRQALSHQGSDRIPVDFGATAVTGIHCRVVEALRKHYGLSYKPVKIVDTFQMLGEVDRDLADAMGVDCIGVGGTRDIFDHDTECMHEQVTPWGQKVLVPIQLDLTQDKEGDVYVYAGGDKNYPPSAVMPNGCFFINAIERQQPIDEDKLNPMDNLEEFNSITDEELDVYKKKVNEASATGRAVVASFGGTALGDVAFVPGMGLKEPKGIRSVVEWYMSTVMRQEYLHEIFRRQTDIAIANYEKLWAVLGDKVDVVLTCGTDFGSQESQFCSVEVFNELWLPHYRRMNDWIHEHTTWKVFKHSCGAIVPILPGLIKAGFDIINPVQINAKDMDSGMLKREFGSHLTFWGGGVDTQKMLPFGTPDEIRRHVLGQCEILGKDGGFVFNSVHNIQANVPVENVIAMLDALKTVLEHHHHHH | not soluble
MIDTHIHSDTRGLEDLELMAMCLDGVITLAHDPFEMKNIKVWEAHVEKLLINELERAKKVGLNLFICVGMHPRAIPPEIDEALDKIKSYINYNSRVVGIGEIGLEKATKEEKEVFIKQLLLAEELNMPAVVHTPRRNKEEVTKIILDEISTLNLKNRDIVIEHCNKETTKWVLDEEFYVGLTIQPGKLTPLEAVEIVKEYKDFADKILLNSDCSSNASDVLAVPRTVLKMKINGIEKDVIYKVAHKNAVNLFGLDI | not soluble
MIIEHNGNIHKIARMTGNKNNFLEIILSDIHENIKIKPLTIKVKGENVINILPEEVSFYVKQGVDLIYEKYKRKFFISEISFCQSDSRPSSIYAFLTFHLLEDIIKNESPSNYT | not soluble
MSHSLRYFVTAVSRPGFGEPRYMEVGYVDNTEFVRFDSDAENPRYEPRARWIEQEGPEYWERETRRAKGNEQSFRVDLRTALRYYNQSAGGSHTLQWMAGCDVESDGRLLRGYWQFAYDGCDYIALNEDLKTWTAADMAAQITRRKWEQAGAAERDRAYLEGECVEWLRRYLKNGNATLLRTDPPKAHVTHHRRPEGDVTLRCWALGFYPADITLTWQLNGEELTQEMELVETRPAGDGTFQKWASVVVPLGKEQKYTCHVEHEGLPEPLTLRWGKE | soluble
MGHHHHHHSHMRRAELAGLKTMAWVPAESAVEELMPRLLPVEPCDLTEGFDPSVPPRTPQEYLRRVQIEAAQCPDVVVAQIDPKKLKRKQSVNISLSGCQPAPEGYSPTLQWQQQQVAQFSTVRQNVNKHRSHWKSQQLDSNVTMPKSEDEEGWKKFCLGEKLCADGAVGPATNESPGIDYVQIGFPPLLSIVSRMNQATVTSVLEYLSNWFGERDFTPELGRWLYALLACLEKPLLPEAHSLIRQLARRCSEVRLLVDSKDDERVPALNLLICLVSRYFDQRDLADEPS | not soluble
MSLRYTKEQCTAAEAQRLAQEIAFGPVVFQVSRLMLKFGIFQLLSGKREGYTLQEISGRTGLTRYAAQVLLEASLTIGTILLEEDRYVLAKAGWFLLNDKMARVNMEFNHDVNYQGLFHLEEALLNGRPEGLKVFGEWPTIYEGLSQLPEQVQKSWFGFDHFYSDQSFGKALEIVFSHHPKRLLDIGGNTGKWATQCVQYNKEVEVTIVDLPQQLEMMRKQTAGLSGSERIHGHGANLLDRDVPFPTGFDAVWMSQFLDCFSEEEVISILTRVAQSIGKDSKVYIMETLWDRQRYETASYCLTQISLYFTAMANGNSKMFHSDDLIRCIENAGLEVEEIQDNIGLGHSILQCRLKEGHHHHHH | soluble
MDHLKHLQQLQNIERIVLSGIVLANHKIEEVHSVLEPSDFYYPPNGLFFEIALKLHEEDCPIDENFIRQKMPKDKQIKEEDLVAIFAASPIDNIEAYVEEIKNASIKRKLFGLANTIREQALESAQKSSDILGAVEREVYALLNGSTIEGFRNIKEVLESAMDLITENQRKGSLEVTGIPTGFVQLDNYTSGFNKGSLVIIGARPSMGKTSLMMNMVLSALNDDRGVAVFSLEMSAEQLALRALSDLTSINMHDLESGRLDDDQWENLAKCFDHLSQKKLFFYDKSYVRIEQIRLQLRKLKSQHKELGIAFIDYLQLMSGSKATKERHEQIAEISRELKTLARELEIPIIALVQLNRSLENRDDKRPILSDIKDSGGIEQDADIVLFLYRGYIYQMRAEDNKIDKLKKEGKIEEAQELYLKVNEERRIHKQNGSIEEAEIIVAKNRNGATGTVYTRFNAPFTRYEDMPIDSHLEEGQETKVDYDIVTT | not soluble
MSLKIKDIKVIFTEPDNIRLIIVKILTDQDGLYGVGCATFTQRPNPVKYAIEDYLKPFLIGKEVSNIEDIWQSSYVSSYWRNGPVLNNALSGVDQALWDIKGKMANMPLYDLFGGKTREAAAVYVHSSGDSNEEVGDKMQAFIEQGFHHIRVQVSTPGYSTYGNKSAKAGDKTLNNNDPKLGPIPVTKRVKDYSDGKLYAHPGGVFEPKPYLRSALSLFEYIRDRFGYGIEILHDVHERIPPILGVWFAKEVEKYQLFFLEDLFSPEDNEYFSMVRAQSSTPIAMGELYSSPHEIIPMIKNRLIDFIRIHISDIGGLTPAKKIAAMGEIFGVRTAWHGPGDTSPIGHAANLALDLSCYNFGIQEYSIFGENTKEVFPGCPIVKKGMMWSNDKPGLGIDIDEKLAKKFPFKEREYGGAWDTVRRADGSMVKEGHHHHHH | not soluble
MPYVFLLSPQLEIASQWDGYYEKTFEVSDHVHKEIILKVSGQTVLITGSGSGLGRLMAFEFGKLGARLVLWDINEQGNKETLKELEAMGVEVWTCNIFHIYRFIR | not soluble
LKCSTVVCVICLEKPKYRCPACRVPYCSVVCFRKHKEQCNPET | soluble
MAEPQPASSGLTDETAFSCCSDPDPSTKDFLLQQTMLRIKDPKKSLDFYTRVLGLTLLQKLDFPAMKFSLYFLAYEDKNDIPKDKSEKTAWTFSRKATLELTHNWGTEDDETQSYHNGNSDPRGFGHIGIAVPDVYSACKRFEELGVKFVKKPDDGKMKGLAFIQDPDGYWIEILNPNKIATII | soluble
MSLRVQANSRSMGVLEDKARARTFYKYLSKVYDRVNTFIWTEEMRAEALSMLDIDAEDRVLDVGCGTGFGTEGLLKHTEHVYGLDQSPHQLTKAWEKFGKHDPVAFHFGDAERLPFKPDSFDVVWSSGSIEYWPHPVQGLRELRRVAKPGSQVLVVGPDYPASTVFRKLADAIMLFYDEDEADRMFREAGYEEIQHRVLRKEPNSPPAIVTVARAPAADDEGHHHHHH | soluble
